Experimental data reported in article PMC4081103, “PARG is dispensable for recovery from transient replicative stress but required to prevent detrimental accumulation of poly(ADP-ribose) upon prolonged replicative stress”.

Biological target: RPA heterotrimer (RPA1, RPA2, RPA3) (UniProt P27694;P15927;P35244 1-616;1-270;1-121)
Assay: EMSA; low PAR (lanes 3-4, from 8 ng) mixed with DNA before RPA; free DNA decreased; PBS, 20 ul, 20-23 C (room temperature), 30 min; 1% agarose gel in 0.5x TBE at 4 C; pH not stated
Conditions: protein: recombinant; copies: 1;1;1; label: 5' Cy5.5; single strand

RPA heterotrimer (RPA1, RPA2, RPA3), sequence (P27694 whole entry, chain 1 of 3): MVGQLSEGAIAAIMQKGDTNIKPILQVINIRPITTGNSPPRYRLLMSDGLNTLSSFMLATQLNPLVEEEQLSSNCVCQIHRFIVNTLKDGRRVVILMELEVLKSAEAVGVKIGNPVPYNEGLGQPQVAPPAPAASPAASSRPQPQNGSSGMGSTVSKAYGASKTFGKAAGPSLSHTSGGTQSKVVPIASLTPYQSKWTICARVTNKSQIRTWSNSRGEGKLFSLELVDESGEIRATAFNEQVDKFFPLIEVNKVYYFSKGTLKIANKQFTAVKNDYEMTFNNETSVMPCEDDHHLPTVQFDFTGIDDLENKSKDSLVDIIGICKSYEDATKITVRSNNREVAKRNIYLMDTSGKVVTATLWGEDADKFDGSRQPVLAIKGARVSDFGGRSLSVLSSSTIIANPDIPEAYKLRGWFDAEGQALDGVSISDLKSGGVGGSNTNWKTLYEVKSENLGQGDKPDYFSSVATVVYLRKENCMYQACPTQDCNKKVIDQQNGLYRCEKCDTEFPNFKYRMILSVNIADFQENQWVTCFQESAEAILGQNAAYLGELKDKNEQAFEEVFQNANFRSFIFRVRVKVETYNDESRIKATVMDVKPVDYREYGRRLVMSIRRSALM
RPA heterotrimer (RPA1, RPA2, RPA3), sequence (P15927 whole entry, chain 2 of 3): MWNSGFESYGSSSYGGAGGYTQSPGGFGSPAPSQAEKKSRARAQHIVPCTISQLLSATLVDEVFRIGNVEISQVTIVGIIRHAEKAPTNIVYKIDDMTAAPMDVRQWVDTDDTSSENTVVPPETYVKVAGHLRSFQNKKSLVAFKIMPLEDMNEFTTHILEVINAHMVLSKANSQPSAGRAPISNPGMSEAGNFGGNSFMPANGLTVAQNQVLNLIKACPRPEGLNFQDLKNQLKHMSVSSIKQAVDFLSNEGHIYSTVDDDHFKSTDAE
RPA heterotrimer (RPA1, RPA2, RPA3), sequence (P35244 whole entry, chain 3 of 3): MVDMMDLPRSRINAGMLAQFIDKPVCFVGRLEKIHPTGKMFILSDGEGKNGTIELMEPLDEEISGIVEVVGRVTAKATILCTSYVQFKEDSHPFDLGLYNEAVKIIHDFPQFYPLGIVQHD

## TTTTTTTTTTTTTTTTTTTTTTTTTTTTTTTTTTTTTTTTTTTTTTTTTT (ssDNA) [Cy5.5-oligodT 50-mer]
  binding result: binds
